30 sequences from the nanobody polyreactivity screen of Harvey et al. (2022) can be followed below.

The data set in a line: yeast display, Sf9 membrane polyspecificity reagent, FACS + sequencing; frameworks hold sequencing errors. Put shortly:
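A synthetic nanobody library was expressed on Saccharomyces cerevisiae BJ5465 by galactose induction for 36–48 hours. The library was stained for 1 hour at 4 °C with 10% biotinylated, detergent-solubilized Sf9 membrane reagent and enriched with streptavidin microbeads before FACS. Low and high (top ~1%) gates were set on anti-HA fluorescence for expression and streptavidin fluorescence for reagent binding, and each polyreactivity label reflects the gate of origin.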
Regarding “QVQLVESGGGLVQAGGSLRLSCAASGFIFYRNAMGWYRQAPGKERELVAAISQRGGRTYADSVKGRFTISRDNAKNTVYLQMNSLKPEDTAFYYCAADGARLSQTTRRFDYWGQGTQVTVSS”, the “polyreactivity (PSR sort gate)” value is given as “low polyreactivity”.

“QVQLVESGGGLVQAGGSLRLICAASGFTFAYYAMGWYRQAPGKERELVAAISSGGSTYYADSVKGRFTISRDNAKNTVYLQMNSLKPEDTAVYYCAARGGRPLIHHWPWYSWKYDYWGQGTQVTVSS”: the “polyreactivity (PSR sort gate)” value is listed as “low polyreactivity”.

Turning to “QLQLVESGGGLVQAGGSLRLSCAASGFTFYRYAKGWYRQAPGKARELVAAISWSGGTTYFADSVKGRFTISRDNAKNTVYLQMNSLTPEDTAVEYCNARFIARSGYKVDYDYWGQGTQVTVSS”, the “polyreactivity (PSR sort gate)” value is “high polyreactivity”.

In the case of “QVQLVESGGGLVQAGGSLRLSCAASGRIFRYNAMGWYRQAPGKERELVAAISFSTTSPYYADSVKGRFTISRDNAKNTVYLQMNSLKPEDTAVYNCNTPGLPIDSEYDYWGQGTQVTVSS”, the “polyreactivity (PSR sort gate)” value was “low polyreactivity”. Take “QVQLVESGGGLVQAGGSLRLSCAASGRTISFYAMGWYRQAPGKERELVAAISRSGGSTYYADSVKGRFTISRDNAKNTVYLQMNSLKPEDTAVYYCAARDQYRWYKYDYWGQGTQVTVSS”: the “polyreactivity (PSR sort gate)” value was “high polyreactivity”. For the sequence “QVQLVESGGGLVQAGGRLRLSCAASGITISGNAMGWYRQAPGKERELDAAISGRGGSTYYADSVKGRFTISRDNAKNTVYLQMNSLIPEDTAVFYCAARVPSPYVATYYYWGQGSQVTVSS”, the “polyreactivity (PSR sort gate)” value is listed as “high polyreactivity”. For “QVQLVESGGGLVQAGGSLRLSCAASGRISVRNAMGWYRQAPGKERELVATIRSGGSTNYADSVKGRFTISRDNAKNTVYLQMYSLKPEDTAVYYCATAKLTWRSQGLDYWGQGTQVTVSS”, the “polyreactivity (PSR sort gate)” value is “low polyreactivity”. In the case of “QVQLVESGGGLVQAGGSLRLSCAASGSTFNGYAMGWYRQAPGKERELVAAISSDGGSTYYADSVKGRFTISRDNAKNTVYLQMNSLKPEYTAVYYCAALVYVSGYGYYYWGQGTQVTVSS”, the “polyreactivity (PSR sort gate)” value was “high polyreactivity”. “QVQLVESGGGLVQAGGSLRLSCAASGRTFPRYTMGWYRQAPGKERELVAASATGGSTYYADSVKGRFTISRDNAKNTVYLQMNSLKPEDTAVYYCAAYKLYPYYSTEYDYWGQGTQVTVSS”: the “polyreactivity (PSR sort gate)” value was “high polyreactivity”. As for “QVQLVESGGGLVQAGGSLRLSCAASGNTLHVYAMGWYRQAPGKERELVARITGGGRTYYADSVKGRFTISRDNAKNTVYLQMNSLKTEDTAVYYCATDYYGHKVLYDYWGQGTQVTVSS”, the “polyreactivity (PSR sort gate)” value is “low polyreactivity”. As to “QVQLVESGGGLVQAGGSLRLSCAASGRTFPYYAMGWSRQAPGKERELVAGITSNAGSTYYADSVKGRFTISRDNAKNTVYLQMNSLKPEDTAVYYCAKTKAGRWTTFKFGYWGQGTQVTVSS”, the “polyreactivity (PSR sort gate)” value is “high polyreactivity”. Consider “QVQLVESGGGLVQAGGSLRLSCAASGFIFPANAMGWYRQAPGKEREFVAAISRSGGTTYYADSVKGRFTISRDNAKNTVYLQMNSLKPEDTAVYYCAARYAIGPGYDYWGQGTQVTVSS”, for which the “polyreactivity (PSR sort gate)” value is on record as “high polyreactivity”. For the sequence “QVQLVESGGGLVQAGGSLRLSCAASGRIIYGNALGWYRQAPGKERELVAAITSGGSTNYADSVKGRFPISRDNAKNTVYLQMNSLIPEDTAVYYCNAVVYSAYRYEYWGQGTQVTVSS”, the “polyreactivity (PSR sort gate)” value is “low polyreactivity”. For the sequence “QVQLVESGGGLVQAGGSLRVSCAASGSTFWSNVMGWYRQAPGKERELDSAISYGGVTTSYADSVKGRFTISRDNAKNTVYLQMNSLKPEDTAVYYCATDYVGYYFYESDYWGQGTQVTVSS”, the “polyreactivity (PSR sort gate)” value is reported as “low polyreactivity”. “QVQLVESGRGLVQAGGSLRLSCAASGSTFRYYAMGWYRQAPGKERELVAAISYSGGSTYYADSVKGRFTISRDNAKNTVYLQMNSLKPEDTAVYYCASSWYSIGKRYYYWGQGTQVTVSS”: the “polyreactivity (PSR sort gate)” value was “high polyreactivity”. With “QVQLVESGGGLVQAGGSLRLSCAASGSIFSGYVMGWYRQAPGKERELVAAISGSGGSTYYADSVKGRFTISRDNAKNTVYLQMNSLKPEDTAVYYCNKGLSRSYWWVDYWGQGTQVTVSS”, the “polyreactivity (PSR sort gate)” value is recorded as “low polyreactivity”. For the sequence “QVQLVESGGGLVQAGGSLRLSCAASGRIFGNYAMGWYRQAPGKERELVAAISGGGSTYYADSVKGRFTISRDNAKNTVYLQMKSLKPEDTAVYYCAARFLWSVFGRKGGYWGQGTQVTVSS”, the “polyreactivity (PSR sort gate)” value is given as “low polyreactivity”.

Regarding “QVQLVESGGGLVQAGGSLRLSCAASGRIIRWYAMAWYRQAPGKERELVAAITWRGGSTDYADSVKGRFTISRDNAKNTVYLQMNSLKPEDTAVYYCNAAGFKTSWYYYGDWYDYWGQGTQVTVSS”, the “polyreactivity (PSR sort gate)” value was “high polyreactivity”. As for “QVQLVESGGGLVQAGGSLRLSCAASGIIFLSYAMGWYRQAPGKERELVAAIRSRGDSTYYADSVKGRFTISRDNAKNTVYLQMNSLKAEDTAVYYCNARQRRYPYGYWGQGTQVTVSS”, the “polyreactivity (PSR sort gate)” value is recorded as “high polyreactivity”. Regarding “QVQLVESGGGLVQAGGSLRLSCAASGSIFSSYAMGWYRQAPGKEREFVAAISWGGGSTYYADSVKGRFTISRDNAKNSVYLQMNSLKPEDTAVYYCAVETWLYPYDYWGQGTQVTVSS”, the “polyreactivity (PSR sort gate)” value is “high polyreactivity”. “QVQLVESGGGLVQAGGSLRLSCAASGRTFYRYSMGWYRQAPGKERELVAGISTRGGSTYYADSVKGRFTISRDNAKNTVYLQMNSLKPEDTAVYYCAAAPLAFRYDYWGQGTHVTVSS”: the “polyreactivity (PSR sort gate)” value is “high polyreactivity”. In the case of “QVQLVESGGGLVQAGGSLRLSCAASGFTYRWYAMGWYRQAPGKETELVAAISWDGGSTYYADSVKGRFTISRDNAKNTVYLQMNSLKPEDTAVYFCATVKSLRYWWQNEYGYWGQGTQVTVSS”, the “polyreactivity (PSR sort gate)” value is on record as “high polyreactivity”.

Consider “QVQLVESGGGLVQAGGSLRLSCAASGIIFKSYTMGWYRQAPGKERELVAAINSSGDRTYYADSVKGRFTISRDNAKNTVYLQMNSLKPEDTAVYYCAAAPVKKSRFRYDYWGQGTQVTVSS”, for which the “polyreactivity (PSR sort gate)” value was “high polyreactivity”.

As to “QVQLVESGGGLVQAGGSLRLSCAASGLSFYLYAMGWYRQAPGKERELVAAISSSGSSTYYADSVKGRFTISRDNAKNTVYLQMNSLKPEDTAVYYCNARGTRASRYDYWGQGTQVTVSS”, the “polyreactivity (PSR sort gate)” value is given as “high polyreactivity”. On to “QVQLVESGGGLVQAGGSRRLSCAASGITFGWYAMGWYRQAPGKEMEWVATISQSGTSTYYADSVKGRFTISRDNAKNTVYLKMISLKPEDTAFYYCAADYIRGYYFRVRLEVDYWGQGTQVTVSS”, for which the “polyreactivity (PSR sort gate)” value is recorded as “low polyreactivity”. In the case of “QVQLVESGGGLVQAGGSLRLSCAASGSIIYANAMGWYRQAPGKEREFVATITDSGAITYYADSVKGRFTISRDNAKNTVYLQMISLKPEDTAVYYCNKDLVVYSVPTHDYDYWGQGTQVTVSS”, the “polyreactivity (PSR sort gate)” value was “low polyreactivity”.

For the sequence “QVQLVESGGRLDQAGGSLRLSCAASGRIFSRNTMGWYRQAPGKERELVATITSAGSTSFADSVKGRFTISRDNAKNTVYLQMNSLKPENTAVYYCAKRGAYATGRRYDPYGYWGQGTQVTVSS”, the “polyreactivity (PSR sort gate)” value was “high polyreactivity”. On to “QVQLVETGGGLVQAGGSLRLSCAASGGIFSYAMVWYRQAPGKEMELVADINSDGSTTYADSVKGRFTISRDNAKNTVYLQMNRLKPEDTAVYFCAVDVSVNWPLLERYEYWGQGSQVTVSS”, for which the “polyreactivity (PSR sort gate)” value is “low polyreactivity”. The same measure for “QVQLVESGGGLVQAGGSLRLSCAASGSIFWLYTMGWYRQAPGKERELVATITQSGSTYYADSVKGRFTISRDNAKNTVYLQMNSLKPEDTAVYYCAARVVWGPESDYWGQGTQVTVSS”: “low polyreactivity”; for “QVQLVESGGGLVQAGGSLRLSCAASGLTILPNAMGWYRPAPGKERELVAAISWGDGNTYYADSVKGRFTISRDNAKNTVYLQMNSLKPEDTAVYYCAADVIKSRTYDYWGQGTQVTVSS”: “low polyreactivity”.
